Measurements reported in PMC5716589, “The nucleoid as a scaffold for the assembly of bacterial signaling complexes” (PLoS Genetics, 2017).

T1: FrzCD-(His)6 (Myxococcus xanthus, UniProt P43500 1-417)
T1 sequence: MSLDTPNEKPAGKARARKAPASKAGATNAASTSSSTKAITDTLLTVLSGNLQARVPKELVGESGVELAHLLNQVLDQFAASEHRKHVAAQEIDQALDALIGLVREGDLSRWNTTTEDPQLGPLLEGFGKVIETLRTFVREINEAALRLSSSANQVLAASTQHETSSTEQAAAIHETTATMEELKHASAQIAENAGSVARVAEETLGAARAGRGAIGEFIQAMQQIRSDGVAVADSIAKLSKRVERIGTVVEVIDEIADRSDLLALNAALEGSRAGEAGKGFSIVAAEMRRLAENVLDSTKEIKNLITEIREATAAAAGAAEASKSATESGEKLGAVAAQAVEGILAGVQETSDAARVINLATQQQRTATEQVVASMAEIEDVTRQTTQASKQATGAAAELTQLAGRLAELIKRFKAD

B1: Oligo70 (dsDNA)
DNA 1: CTTGCAGTAGAGCTGACCATGATTACGCCATCAGCAGCTCCAGGTCGTACCTCCAGCTACCAATCCCCG
DNA 2: CGGGGATTGGTAGCTGGAGGTACGACCTGGAGCTGCTGATGGCGTAATCATGGTCAGCTCTACTGCAAG
B2: C-terminal-tagged FrzCD-(His)6 (receptor, Myxococcus xanthus, UniProt P43500 1-417, looked up)
chain: T1 sequence
notes: FrzCD, cytoplasmic chemoreceptor (MCP) of the Frz chemosensory system of Myxococcus xanthus; the names of the deletion mutants (Δ131–417) imply 417 residues; also called FrzCD-H6; 6His-FrzCD (as called in the results for this experiment); source: E. coli BL21-AI, purified (HisTrap FF, MonoQ ion exchange)

Columns and labels:
FrzCD-(His)6 = target: T1, FrzCD-(His)6; experiment: EMSA; 300 nM DNA; EMSA Fig 3: 10 mM Tris-HCl pH 8, 60 mM NaCl, 10% glycerol, 4 C, 40 min; EMSA S4 Fig: 50 mM Tris pH 7.4, 50 mM NaCl, 1 mM DTT, 10% glycerol, 25 C, 20 min; BLI: PBS pH 7.5, 0.001% Tween-20, 25 C (6His-FrzCDΔ1-130 used as reference subtraction); details: protein: recombinant; tags: C-terminal 6His; chain copies: 2; blunt
[1] = target: the molecule itself; experiment: SEC-MALS; 100 μl of 2 mg/ml (45 μM) FrzCD injected on a BioRad EnRich650 column in 50 mM Tris, 50 mM NaCl, pH 8.0, 0.4 ml/min; Wyatt Dawn Heleos II, Debye model

Binder | binding result (FrzCD-(His)6) | stoichiometry N [1]
B1 | binds | 
B2 |  | 2
